# Source: PMC6656775, “Soluble and membrane-bound protein carrier mediate direct copper transport to the ethylene receptor family” (Scientific Reports, 2019)
# T1: RAN1, full-length, purified recombinant (A. thaliana, UniProt Q9S7J8 1-1001, AlexaFluor488-NHS label)
# T1 construct: P1B-type copper ATPase RAN1 (HMA7), Arabidopsis thaliana, full-length; also called full-length RAN1; HMA7; source: E. coli BL21 (DE3) or C43 (DE3), pETEV16b, solubilised with DDM, purified (HisTrap, TEV, Superdex200)
# T1 sequence (looked up): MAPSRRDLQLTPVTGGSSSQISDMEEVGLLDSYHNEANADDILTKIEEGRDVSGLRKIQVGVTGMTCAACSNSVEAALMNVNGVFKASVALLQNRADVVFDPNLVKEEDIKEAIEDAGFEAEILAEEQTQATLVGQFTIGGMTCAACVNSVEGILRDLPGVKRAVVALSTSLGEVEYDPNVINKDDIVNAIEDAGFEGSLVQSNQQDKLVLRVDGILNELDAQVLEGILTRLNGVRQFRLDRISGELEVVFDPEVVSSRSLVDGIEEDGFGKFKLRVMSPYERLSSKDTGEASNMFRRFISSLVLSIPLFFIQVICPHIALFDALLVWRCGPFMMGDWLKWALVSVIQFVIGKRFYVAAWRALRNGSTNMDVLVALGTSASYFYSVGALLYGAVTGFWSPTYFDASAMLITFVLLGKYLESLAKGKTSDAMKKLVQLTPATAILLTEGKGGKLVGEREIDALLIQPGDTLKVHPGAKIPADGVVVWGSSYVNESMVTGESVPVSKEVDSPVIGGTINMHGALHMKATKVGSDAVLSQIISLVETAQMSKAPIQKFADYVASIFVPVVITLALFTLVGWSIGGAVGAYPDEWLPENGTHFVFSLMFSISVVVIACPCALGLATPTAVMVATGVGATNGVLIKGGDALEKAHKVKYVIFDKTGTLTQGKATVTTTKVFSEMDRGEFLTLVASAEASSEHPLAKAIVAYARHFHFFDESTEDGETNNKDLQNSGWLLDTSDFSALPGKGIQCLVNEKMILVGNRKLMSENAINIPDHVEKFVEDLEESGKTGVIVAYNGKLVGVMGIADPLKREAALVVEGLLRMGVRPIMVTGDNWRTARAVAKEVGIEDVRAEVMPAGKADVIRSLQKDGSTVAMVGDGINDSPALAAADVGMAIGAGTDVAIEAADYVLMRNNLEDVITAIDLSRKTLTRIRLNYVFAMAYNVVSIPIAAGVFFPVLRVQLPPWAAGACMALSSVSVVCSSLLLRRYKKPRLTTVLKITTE
# T2: CterRAN1 (amino acids 299–1001), purified recombinant (A. thaliana, UniProt Q9S7J8 299-1001, AlexaFluor488-NHS label)
# T2 construct: RAN1 (HMA7), Arabidopsis thaliana, amino acids 299-1001 (transmembrane copper transport site); also called CterRAN1 mutant; source: E. coli BL21 (DE3) or C43 (DE3), pETEV16b, solubilised with DDM, purified (HisTrap, TEV, Superdex200)
# T2 sequence (looked up): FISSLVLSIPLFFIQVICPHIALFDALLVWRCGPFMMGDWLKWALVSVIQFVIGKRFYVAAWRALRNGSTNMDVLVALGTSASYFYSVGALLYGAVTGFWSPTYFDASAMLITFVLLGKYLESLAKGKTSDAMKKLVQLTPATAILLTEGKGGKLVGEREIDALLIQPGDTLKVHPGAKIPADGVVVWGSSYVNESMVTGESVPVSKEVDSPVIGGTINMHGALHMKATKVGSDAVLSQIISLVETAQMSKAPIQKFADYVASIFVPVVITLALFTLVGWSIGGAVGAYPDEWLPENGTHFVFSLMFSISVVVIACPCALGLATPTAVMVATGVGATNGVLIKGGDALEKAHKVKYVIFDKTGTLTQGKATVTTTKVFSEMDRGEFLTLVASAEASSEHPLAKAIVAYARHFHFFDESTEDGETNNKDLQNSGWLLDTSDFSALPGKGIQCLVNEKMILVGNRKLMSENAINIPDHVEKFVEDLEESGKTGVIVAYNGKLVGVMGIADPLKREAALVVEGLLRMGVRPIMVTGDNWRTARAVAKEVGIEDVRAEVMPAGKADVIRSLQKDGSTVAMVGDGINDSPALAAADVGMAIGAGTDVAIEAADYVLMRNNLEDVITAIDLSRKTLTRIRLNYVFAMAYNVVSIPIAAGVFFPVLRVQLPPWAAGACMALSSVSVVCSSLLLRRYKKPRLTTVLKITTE
# B1: ETR1^306–738, purified recombinant (domain or fragment, A. thaliana, UniProt P49333 306-738, looked up)
# chain: ALSHAAILEESMRARDLLMEQNVALDLARREAETAIRARNDFLAVMNHEMRTPMHAIIALSSLLQETELTPEQRLMVETILKSSNLLATLMNDVLDLSRLEDGSLQLELGTFNLHTLFREVLNLIKPIAVVKKLPITLNLAPDLPEFVVGDEKRLMQIILNIVGNAVKFSKQGSISVTALVTKSDTRAADFFVVPTGSHFYLRVKVKDSGAGINPQDIPKIFTKFAQTQSLATRSSGGSGLGLAISKRFVNLMEGNIWIESDGLGKGCTAIFDVKLGISERSNESKQSGIPKVPAIPRHSNFTGLKVLVMDENGVSRMVTKGLLVHLGCEVTTVSSNEECLRVVSHEHKVVFMDVCMPGVENYQIALRIHEKFTKQRHQRPLLVALSGNTDKSTKEKCMSFGLDGVLLKPVSLDNIRDVLSDLLEPRVLYEGM
# notes: also called extra-membranous part of ETR1; soluble extra-membranous part of the receptor
# B2: NterRAN1 (amino acids 1–298), purified recombinant (domain or fragment, A. thaliana, UniProt Q9S7J8 1-298, looked up)
# chain: MAPSRRDLQLTPVTGGSSSQISDMEEVGLLDSYHNEANADDILTKIEEGRDVSGLRKIQVGVTGMTCAACSNSVEAALMNVNGVFKASVALLQNRADVVFDPNLVKEEDIKEAIEDAGFEAEILAEEQTQATLVGQFTIGGMTCAACVNSVEGILRDLPGVKRAVVALSTSLGEVEYDPNVINKDDIVNAIEDAGFEGSLVQSNQQDKLVLRVDGILNELDAQVLEGILTRLNGVRQFRLDRISGELEVVFDPEVVSSRSLVDGIEEDGFGKFKLRVMSPYERLSSKDTGEASNMFRR
# modifications: AlexaFluor488-NHS label
# notes: RAN1 (HMA7), Arabidopsis thaliana, cytosolic N-terminal region, amino acids 1-298; source: E. coli BL21 (DE3) or C43 (DE3), pETEV16b, purified (HisTrap, TEV, Superdex200)
# B3: ETR1^1–157, purified recombinant (domain or fragment, A. thaliana, UniProt P49333 1-157, looked up)
# chain: MEVCNCIEPQWPADELLMKYQYISDFFIAIAYFSIPLELIYFVKKSAVFPYRWVLVQFGAFIVLCGATHLINLWTFTTHSRTVALVMTTAKVLTAVVSCATALMLVHIIPDLLSVKTRELFLKNKAAELDREMGLIRTQEETGRHVRMLTHEIRSTL
# notes: In detergent (FosCholine-16); also called purified ETR1
# How the values were obtained:
# [1] = biological target: T1, RAN1, full-length, purified recombinant; test: MST; AlexaFluor488-labelled RAN1, CterRAN1, NterRAN1, ATX1, CCH or CCHΔ (50 nM) in buffer D (50 mM Tris, 250 mM NaCl, 0.015% FosCholine16, 2.5 mM DTT, 20% glycerol, pH 8.5); ETR1^306–738 titrated 37 µM to 1.1 nM; triplicates; settings: both partners purified
# [2] = biological target: T2, CterRAN1 (amino acids 299–1001), …; test: as above; settings: both partners purified
# [3] = biological target: T1, RAN1, full-length, purified recombinant; test: MST; AlexaFluor488-labelled RAN1 or CterRAN1 (15 nM, 50 mM HEPES, 300 mM NaCl, 0.1% DDM, pH 7.5) or NterRAN1 (50 nM, same buffer without DDM, 0.05% Tween20); ATX1, CCH or CCHΔ titrated 30 µM to 0.9 nM; triplicates; apparent dissociation constants; settings: both partners purified
# [4] = biological target: B3; test: MST; AlexaFluor488-labelled ATX1 (75 nM), CCH (100 nM) or CCHΔ (50 nM) in 50 mM HEPES, 300 mM NaCl, pH 7.5, 0.015% FosCholine-16, 0.05% Tween20; ETR1^1–157 titrated 7.5 µM to 0.2 nM; triplicates; apparent dissociation constants; settings: both partners purified
# [5] = biological target: B1; test: MST; AlexaFluor488-labelled RAN1, CterRAN1, NterRAN1, ATX1, CCH or CCHΔ (50 nM) in buffer D (50 mM Tris, 250 mM NaCl, 0.015% FosCholine16, 2.5 mM DTT, 20% glycerol, pH 8.5); ETR1^306–738 titrated 37 µM to 1.1 nM; triplicates; settings: both partners purified
# [6] = biological target: CterRAN1 (amino acids 299–1001), purified recombinant (A. thaliana) (UniProt Q9S7J8); test: MST; AlexaFluor488-labelled RAN1 or CterRAN1 (20 nM, 50 mM HEPES, 300 mM NaCl, 0.1% DDM, pH 7.5) or NterRAN1 (40 nM, 0.05% Tween20); ETR1^1–157 titrated 10 µM to 0.3 nM in buffer with 0.015% FosCholine-16; triplicates
# [7] = biological target: B2; test: as above; settings: both partners purified
# [8] = biological target: T1, RAN1, full-length, purified recombinant; test: as above; settings: both partners purified
Binder,Kd [3],Kd [4],other results
B1,,,Kd [1]: 71 ± 17 nM; Kd [2]: 211 ± 38 nM
"CCHΔ, deletion mutant of CCH lacking the C-terminal extension, purified recombinant (domain or fragment, AlexaFluor488-NHS label where it was the labelled partner (with ETR1^1–157 and ETR1^306–738); unlabelled where titrated) MAQTVVLKVGMSCQGCVGAVNRVLGKMEGVESFDIDIKEQKVTVKGNVEPEAVFQTVSKTGKKTSYWPVEAEAEPK",77 ± 24 nM,376 ± 93 nM,
"CCH, full-length, purified recombinant (natural protein, A. thaliana, UniProt O82089 1-121, looked up, AlexaFluor488-NHS label where it was the labelled partner (with ETR1^1–157 and ETR1^306–738); unlabelled where titrated, soluble copper chaperone CCH, Arabidopsis thaliana, full-length; Preloaded with Cu(I) in the copper transfer assay; also called CCH wildtype; full-length CCH; source: E. coli BL21 (DE3) or C43 (DE3), pETEV16b, purified (HisTrap, TEV, Superdex200)) MAQTVVLKVGMSCQGCVGAVNRVLGKMEGVESFDIDIKEQKVTVKGNVEPEAVFQTVSKTGKKTSYWPVEAEAEPKAEADPKVETVTETKTEAETKTEAKVDAKADVEPKAAEAETKPSQV",55 ± 13 nM,526 ± 101 nM,
B2,,,Kd [5]: 3480 ± 315 nM
"ATX1, purified recombinant (natural protein, A. thaliana, UniProt Q94BT9 1-76, looked up, AlexaFluor488-NHS label where it was the labelled partner (with ETR1^1–157 and ETR1^306–738); unlabelled where titrated, soluble copper chaperone ATX1, Arabidopsis thaliana; Preloaded with Cu(I) in the copper transfer assay; also called Cu(I)-ATX1; source: E. coli BL21 (DE3) or C43 (DE3), pETEV16b, purified (HisTrap, TEV, Superdex200)) MSQTVVLRVAMTCEGCVGAVKRVLGKMEGVESFDVDIKEQKVTVKGNVQPDAVLQTVTKTGKKTAFWEAEGETAKA",41 ± 11 nM,313 ± 74 nM,
B3,,,Kd [6]: 2610 nM; Kd [7]: 205 ± 35 nM; Kd [8]: 33 ± 8 nM
